Data taken from the supplement of paper PMC9170038.

System: MS2 coat protein
Assay: apparent KD of MS2 coat protein; designed switch direction (-1 OFF switch, 1 ON switch): -1; higher = weaker reporter binding
Method in brief: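 For each design, the apparent KD is the median over clusters of curves fitted to normalised cluster fluorescence. Clusters held RNA switches with common flanks, transcribed on Illumina chips by stalled E. coli RNA polymerase. These were titrated with SNAP-549-labelled MS2 coat protein, doubling from 0.7 or 1.5 nM to 3 µM, without input, with 200 uM small-molecule ligand, or with an oligonucleotide input.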

[1] = input ligand: microRNA oligo, concentration not stated
[2] = Eterna round: R95, input ligand: microRNA oligo, concentration not stated
[3] = Eterna round: R95, input ligand: FMN 200 uM
[4] = Eterna round: R95, input ligand: none

Sequence	apparent KD of MS2 coat protein (input ligand: FMN 200 uM) [µM]	apparent KD of MS2 coat protein [1] [µM]	apparent KD of MS2 coat protein (input ligand: none) [µM]	apparent KD of MS2 coat protein [2] [µM]	apparent KD of MS2 coat protein [3] [µM]	apparent KD of MS2 coat protein [4] [µM]
UGACUUCAUAUCACAUGAGGAUCACCCAUGUUAUUCAUCUCGUAGGAUAUCGAGGUUUAUUAUUUCGAGAAGGACGUAUUGUUU [JR_ExcNG3_Sub075] (Eterna round: R96, puzzle: Exclusion NG 3)	0.0686	0.0443	0.0455	–	–	–
UGAGGACAUGAGGAUCACCCAUGUAAGGAUAUGCGGAGAGAUUGGAGAGGUCGAGGAGGCAGAAGGUACAGGAC [JR_Exclu1_Sub049] (puzzle: Exclusion 1)	–	–	–	0.068	–	–
UGAGUGCUGCGAGGAUAUACAUGAGGAUCACCCAUGUAUACCUGUGAGGCUUUGCCUCACAGGUAGUAGAAGGCGCAGUACUCU [Mat - Exclusion NG 2 - Mod of JL - D44] (Eterna round: R96, puzzle: Exclusion NG 2)	0.0131	0.00911	0.0128	–	–	–
UGAGUGCUGCGAGGAUAUACAUGAGGAUCACCCAUGUUAUCGUGUGAGGCUUUGCCUCACACGAAGUAGAAGGCGCAGUACUCU [JL ENG2 1.11] (Eterna round: R96, puzzle: Exclusion NG 2)	0.00984	0.0102	0.0142	–	–	–
UGAUCUAGCGGAGGAUAUACAUGAGGAUCACCCAUGUAGACUCUAUGACCGUAGUCGUGGAGUGUGUAGAAGGCCGCUAGAUCU [JL ENG2 3.74] (Eterna round: R96, puzzle: Exclusion NG 2)	0.0143	0.00924	0.0126	–	–	–
UGAUCUAGCGGAGGAUAUACAUGAGGAUCACCCAUGUAGUUGUCUGUACCGUAGUGCAGACUUGUGUAGAAGGCCGCUAGAUCU [JL ENG2 3.62] (Eterna round: R96, puzzle: Exclusion NG 2)	0.0259	0.00962	0.0143	–	–	–
UGAUCUAGCGGAGGAUAUACAUGAGGAUCACCCAUGUAUACUCUAUGACCGUAGUCGUGGAGCGUGUAGAAGGCCGCUAGAUCU [JL ENG2 3.76] (Eterna round: R96, puzzle: Exclusion NG 2)	0.0146	0.0091	0.0116	–	–	–
UGAUCUAGCGGAGGAUAUACAUGAGGAUCACCCAUGUAUAGUCUAUGACCGUAGUCGUGGAACGUGUAGAAGGCCGCUAGAUCU [JL ENG2 3.78] (Eterna round: R96, puzzle: Exclusion NG 2)	0.0184	0.0102	0.0144	–	–	–
UGAUCUUGUGUCAGGAUAUGCUGGUCUCCUCUCCAGCAGAAGGGACAUGAGGAUCACCCAUGUUCUCUCUUUUU [Magic-11] (puzzle: Brourd's mod of Exclusion 4)	–	–	–	0.0115	–	–
UGAUCUUUUGUUAGGAUAUGCUGGCUGAAAAGUCAGCAGAAGGGACAUGAGGAUCACCCAUGUUCUCUCUUUUU [Magic-09] (puzzle: Brourd's mod of Exclusion 4)	–	–	–	0.0103	–	–
UGAUUUGGAGGAUAUACAUGAGGAUCACCCAUGUAAAGGCCGUGGGUCGAACCCGAGAGUAGAAGGUCGAGAGA [Eternabot (L1) Solution 30] (Eterna round: R97, puzzle: Exclusion 3)	0.185	–	0.0917	–	–	–
UGCAAGCUUUUAAGAUCCUACAUGAGGAUCACCCAUGUGCUCGUCUUAUAACGUACUGUGACGAAAGUCACGGUACG [JL TOV1 3.95] (Eterna round: R97, puzzle: Sensor, turn-off variant 1)	0.105	–	0.114	–	–	–
UGCAGACGAGGAUAUAAAUUUGAUAACAUGAGGAUCACCCAUGUGAUCGAUAGAUCAAAUUUAGAAGGCGUCUGCA [E5/7-A2] (Eterna round: R97, puzzle: Exclusion 5)	0.369	–	0.717	–	–	–
UGCAGACGAGGAUAUGAUAAAGAUCACAUGAGGAUCACCCAUGUAGCGUCGAUAGACGCAUCAGAAGGCGUCUGCA [E5/1-A2] (Eterna round: R97, puzzle: Exclusion 5)	0.0163	–	0.016	–	–	–
UGCAUGUAAGGAUAUGCAACCUGCGCUCAUUAGCAGGUCAAGCAGAAGGUACAUGAGGAUCACCCAUGUGUCCG [Tebisoma] (Eterna round: R96, puzzle: Exclusion 4)	0.462	0.0252	0.0316	–	–	–
UGCAUGUAAGGAUAUGCAUCCGCCGACGUCCCGGCGGCACAGCAGAAGGUACAUGAGGAUCACCCAUGUGUCCC [Qusousar] (Eterna round: R96, puzzle: Exclusion 4)	0.449	0.024	0.031	–	–	–

Sequence	apparent KD of MS2 coat protein (input ligand: FMN 200 uM) [µM]	apparent KD of MS2 coat protein [1] [µM]	apparent KD of MS2 coat protein (input ligand: none) [µM]	apparent KD of MS2 coat protein [2] [µM]	apparent KD of MS2 coat protein [3] [µM]	apparent KD of MS2 coat protein [4] [µM]
UGCCAGAAAGGAUAUACAUGAGGAUCACCCAUGUAACCCUAUGUGAGAGUUCCCGUUUGUAGAAGGUUCUCGUA [EX3 C.22] (Eterna round: R97, puzzle: Exclusion 3)	0.0213	–	0.0182	–	–	–
UGCGGGCUUUUGAGACCUCACAUGAGGAUCACCCAUGUGCUUGUCUUGUGAGUGGGUAGGUCGUUGGCUGACUCACG [Sensor-V1 #99] (Eterna round: R97, puzzle: Sensor, turn-off variant 1)	0.0234	–	0.0231	–	–	–
UGCUACAUGAGGAUCACCCAUGUAAUGUGGGAUUCGUUAGGACAGGAUAUGAUUGUAUAGUUUUUUCAGAAGGGUCAUUACUUU [JR_ExcNG3_Sub010] (Eterna round: R96, puzzle: Exclusion NG 3)	–	0.0629	–	–	–	–
UGCUACGGAGGAUAUACAUGAGGAUCACCCAUGUGAUAGAUUAUCGCGAGAGCGUAAUGUAGAAGGCCGUAGCU [jl-ex3-4.12 jl mod] (Eterna round: R97, puzzle: Exclusion 3)	0.506	–	0.056	–	–	–
UGGGAACGAGGAUAUCGAUGGUGGAACAUGAGGAUCACCCAUGUAUGAGAUAGUGUAGUUCGAGAAGGCGUUAAGU [JR_E5_Sub053] (puzzle: Exclusion 5)	–	–	–	0.054	–	–
UGUAACCUAGGAUAUACAUGAGGAUCACCCAUGUAAUGUAGUAUAGUGUGUGUAAGGUGUAGAAGGAGGGAUGU [LRO-Excl05-22-Smart Aleck] (Eterna round: R97, puzzle: Exclusion 3)	0.00976	–	0.0629	–	–	–
UGUAAGCUAGGAUAUGCUUUGGGAAAGCAUUCCUUCGAUAAACUUGAGGAUCACCCAAGUAGAAGGAGCUUACG [salish99_ex2_r4_007] (Eterna round: R97, puzzle: Exclusion 2)	0.0141	–	0.0128	–	–	–
UGUACCAUAGGAUAUACAUGAGGAUCACCCAUGUUAAUACGAUAUGUAAUGGUUACUUGUAGAAGGAUGAAAAG [Eternabot (L1) Solution 29] (Eterna round: R97, puzzle: Exclusion 3)	0.0149	–	0.011	–	–	–
UGUACUAUGCGUGCUGACAUGCGUAGUGCAGCAGGUGUAACAUGAGGAUCACCCAUGUCCUCAUUUGCUCGUCUUAU [SL-sv3-2.06 JL mod] (puzzle: Sensor v3, turn-off variant 2)	–	–	–	0.176	0.194	0.273
UGUCAGAUGGUAGGAUAUCUAUAUCGAGUGACCCUUUCAUAACAUGAGGAUCACCCAUGUCGGUGGGAGAAGGGCCGUAUGGUG [salish99_ExNG02_R04_029] (Eterna round: R96, puzzle: Exclusion NG 2)	0.0286	0.0232	0.0285	–	–	–
UGUGAGCAUGUCAGGAUAUGCAUCACAGUUAGGAUGUAGAAGGGACAUGAGGAUCACCCAUGUAGCUUCAGGUA [BmEX4 A.20] (Eterna round: R97, puzzle: Brourd's mod of Exclusion 4)	0.0177	–	0.0145	–	–	–
UGUGCGUAUGUGAGGAUAUGCUGGUCCUUGGAUCAGCAGAAGGCACAUGAGGAUCACCCAUGUGGUGUCGUACA [salish99_Bmod_Ex4_007] (puzzle: Brourd's mod of Exclusion 4)	–	–	–	0.158	0.0292	0.307
UGUGCGUAUGUGAGGAUAUGCUGGUCCUUGGAUCGGCAGAAGGCACAUGAGGAUCACCCAUGUGGUGUCGUUCC [salish99_Bmod_ex4_095] (puzzle: Brourd's mod of Exclusion 4)	–	–	–	0.102	–	–
UGUGCGUAUGUGAGGAUAUGCUGGUCCUUGGCUCGGCAGAAGGCACAUGAGGAUCACCCAUGUGGUGUCGUACC [salish99_Bmod_ex4_060] (puzzle: Brourd's mod of Exclusion 4)	–	–	–	0.0331	–	–
UGUGCGUCAGGAUAUUCUACUUAUUACAUGAGGAUCACCCAUGUGAAUGUACAAGGGUGUGAAGAAGGGACUUGUC [LRO-Excl5-05-mod A17d by Omei] (Eterna round: R97, puzzle: Exclusion 5)	0.194	–	0.798	–	–	–
